The numbers were not newly measured in PMC11747410, which cites them from elsewhere.

Read-outs that look alike come from different tables or passages of the source.

Data set [1] concerns the target CD166/ALCAM (Homo sapiens) (UniProt Q13740).
The target is the same in data set [2]. The source holds these as a separate data set.

In general, Kd refers to the equilibrium constant for the complex coming apart. Consider CD6 (from UniProt P30203), for which the Kd in data set [1] was 0.7 µM.

As for CD166/ALCAM (from UniProt Q13740), the dissociation constant Kd in data set [2] is 38.5 µM.
